In paper doi:10.1101/2022.02.14.480375:

Molecular target: S1PR1-SmBiT (S1P receptor-1 fused to the small fragment of split luciferase) (UniProt P21453)
Assay: split reporter

Chain of UniProt P21453 (P21453 whole entry, the tested form may be a part): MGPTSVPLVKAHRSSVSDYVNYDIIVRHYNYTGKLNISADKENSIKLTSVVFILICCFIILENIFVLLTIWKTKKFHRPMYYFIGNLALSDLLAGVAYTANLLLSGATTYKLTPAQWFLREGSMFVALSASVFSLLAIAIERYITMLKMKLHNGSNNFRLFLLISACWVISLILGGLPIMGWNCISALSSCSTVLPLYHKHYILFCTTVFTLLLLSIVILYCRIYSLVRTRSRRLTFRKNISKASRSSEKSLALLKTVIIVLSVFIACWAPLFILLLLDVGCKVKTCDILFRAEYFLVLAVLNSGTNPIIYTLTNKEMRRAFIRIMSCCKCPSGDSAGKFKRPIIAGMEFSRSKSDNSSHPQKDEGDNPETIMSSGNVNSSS

T1/2 of β-arrestin activation with albumin-bound S1P (1 μM S1P): 16 min
Substance: LgBiT-beta-arrestin fusion protein (from UniProt P49407 1-418) (natural protein)
